Reference: US20220267435A1

Molecular target: CD19 (UniProt P15391)
Test: cell-based or functional assay

UniProt P15391, sequence (P15391 20-556 limits assumed): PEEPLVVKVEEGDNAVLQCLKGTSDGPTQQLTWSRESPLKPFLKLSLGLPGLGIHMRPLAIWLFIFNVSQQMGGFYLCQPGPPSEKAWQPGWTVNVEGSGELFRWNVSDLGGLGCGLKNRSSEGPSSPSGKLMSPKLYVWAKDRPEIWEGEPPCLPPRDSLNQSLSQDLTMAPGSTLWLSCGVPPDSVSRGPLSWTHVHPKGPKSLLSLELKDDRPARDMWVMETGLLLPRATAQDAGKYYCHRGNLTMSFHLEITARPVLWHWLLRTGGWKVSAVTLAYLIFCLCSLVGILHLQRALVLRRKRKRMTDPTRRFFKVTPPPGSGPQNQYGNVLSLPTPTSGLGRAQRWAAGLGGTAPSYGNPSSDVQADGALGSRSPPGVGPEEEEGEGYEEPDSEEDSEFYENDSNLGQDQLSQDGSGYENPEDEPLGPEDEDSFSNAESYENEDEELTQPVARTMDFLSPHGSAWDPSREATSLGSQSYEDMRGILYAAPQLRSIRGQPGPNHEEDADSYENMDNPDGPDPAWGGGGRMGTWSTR

BG-conjugated FMC63 antibody showed an FMC63-BG concentration at the peak of SNAP-synNotch activation (TagBFP) of 0.25 µg/mL, an FMC63-BG concentration at which SNAP-synNotch activation is completely inhibited (hook effect) of 10 µg/mL and a TagBFP MFI; 0.01 million SNAP-synNotch cells, 0.01 million Raji cells, 0.1 µg/mL FMC63-BG, 48 h of 1820 MFI. It also gave a TagBFP MFI; 0.01 million SNAP-synNotch cells, 0.01 million Raji cells, 1.0 µg/mL FMC63-BG, 48 h of 806 MFI, a TagBFP MFI; 0.01 million SNAP-synNotch cells, 0.1 million Raji cells, 0.1 µg/mL FMC63-BG, 48 h of 3400 MFI and a TagBFP MFI; 0.01 million SNAP-synNotch cells, 0.1 million Raji cells, 1.0 µg/mL FMC63-BG, 48 h of 2470 MFI. It also gave a TagBFP MFI; 0.01 million SNAP-synNotch cells, 0.5 million Raji cells, 0.1 µg/mL FMC63-BG, 48 h of 1810 MFI, a TagBFP MFI; 0.01 million SNAP-synNotch cells, 0.5 million Raji cells, 1.0 µg/mL FMC63-BG, 48 h of 5350 MFI and a TagBFP MFI; 0.01 million SNAP-synNotch cells, 1 million Raji cells, 0.1 µg/mL FMC63-BG, 48 h of 1520 MFI. For the same substance, the TagBFP MFI; 0.01 million SNAP-synNotch cells, 1 million Raji cells, 1.0 µg/mL FMC63-BG, 48 h was 4430 MFI, the TagBFP MFI; 0.1 million SNAP-synNotch cells, 0.01 million Raji cells, 0.1 µg/mL FMC63-BG, 48 h was 1020 MFI and the TagBFP MFI; 0.1 million SNAP-synNotch cells, 0.01 million Raji cells, 1.0 µg/mL FMC63-BG, 48 h was 984 MFI. It also gave a TagBFP MFI; 0.1 million SNAP-synNotch cells, 0.1 million Raji cells, 0.1 µg/mL FMC63-BG, 48 h of 2540 MFI, a TagBFP MFI; 0.1 million SNAP-synNotch cells, 0.1 million Raji cells, 1.0 µg/mL FMC63-BG, 48 h of 2260 MFI and a TagBFP MFI; 0.1 million SNAP-synNotch cells, 0.5 million Raji cells, 0.1 µg/mL FMC63-BG, 48 h of 1940 MFI. It also gave a TagBFP MFI; 0.1 million SNAP-synNotch cells, 0.5 million Raji cells, 1.0 µg/mL FMC63-BG, 48 h of 4570 MFI, a TagBFP MFI; 0.1 million SNAP-synNotch cells, 1 million Raji cells, 0.1 µg/mL FMC63-BG, 48 h of 1180 MFI and a TagBFP MFI; 0.1 million SNAP-synNotch cells, 1 million Raji cells, 1.0 µg/mL FMC63-BG, 48 h of 4220 MFI. The TagBFP MFI; 0.5 million SNAP-synNotch cells, 0.01 million Raji cells, 0.1 µg/mL FMC63-BG, 48 h was 732 MFI, the TagBFP MFI; 0.5 million SNAP-synNotch cells, 0.01 million Raji cells, 1.0 µg/mL FMC63-BG, 48 h was 667 MFI and the TagBFP MFI; 0.5 million SNAP-synNotch cells, 0.1 million Raji cells, 0.1 µg/mL FMC63-BG, 48 h was 1570 MFI. It also gave a TagBFP MFI; 0.5 million SNAP-synNotch cells, 0.1 million Raji cells, 1.0 µg/mL FMC63-BG, 48 h of 1490 MFI, a TagBFP MFI; 0.5 million SNAP-synNotch cells, 0.5 million Raji cells, 0.1 µg/mL FMC63-BG, 48 h of 1120 MFI and a TagBFP MFI; 0.5 million SNAP-synNotch cells, 0.5 million Raji cells, 1.0 µg/mL FMC63-BG, 48 h of 2680 MFI. For the same substance, the TagBFP MFI; 0.5 million SNAP-synNotch cells, 1 million Raji cells, 0.1 µg/mL FMC63-BG, 48 h was 955 MFI, the TagBFP MFI; 0.5 million SNAP-synNotch cells, 1 million Raji cells, 1.0 µg/mL FMC63-BG, 48 h was 2880 MFI and the TagBFP MFI; 1 million SNAP-synNotch cells, 0.01 million Raji cells, 0.1 µg/mL FMC63-BG, 48 h was 550 MFI. It also gave a TagBFP MFI; 1 million SNAP-synNotch cells, 0.01 million Raji cells, 1.0 µg/mL FMC63-BG, 48 h of 519 MFI, a TagBFP MFI; 1 million SNAP-synNotch cells, 0.1 million Raji cells, 0.1 µg/mL FMC63-BG, 48 h of 1160 MFI and a TagBFP MFI; 1 million SNAP-synNotch cells, 0.1 million Raji cells, 1.0 µg/mL FMC63-BG, 48 h of 1220 MFI. The TagBFP MFI; 1 million SNAP-synNotch cells, 0.5 million Raji cells, 0.1 µg/mL FMC63-BG, 48 h was 979 MFI, the TagBFP MFI; 1 million SNAP-synNotch cells, 0.5 million Raji cells, 1.0 µg/mL FMC63-BG, 48 h was 1810 MFI and the TagBFP MFI; 1 million SNAP-synNotch cells, 1 million Raji cells, 0.1 µg/mL FMC63-BG, 48 h was 748 MFI. For the same substance, the TagBFP MFI; 1 million SNAP-synNotch cells, 1 million Raji cells, 1.0 µg/mL FMC63-BG, 48 h was 1970 MFI and the lowest FMC63-BG concentration with significant SNAP-synNotch activation (TagBFP) was 0.04 µg/mL.
